Experimental data from patent publication US20260035452A1 (THE UNIVERSITY OF BIRMINGHAM, priority 2022, published 2026).

Experiments:
[1] = target: IL-17RA (Homo sapiens, UniProt Q96F46); conditions: cited from earlier work
[2] = system: NIH-3T3 mouse embryonic fibroblast cells; test: IL-6 secretion by NIH-3T3 fibroblasts (Elisa); assay type: cell-based; conditions: NIH-3T3 cells, 50 ng/ml, vs control / IL-17 group
Experimental: FIG. 2: NIH-3T3 mouse embryonic fibroblast cells were treated with IL-17 vehicle (Ctrl), IL-17 (50 ng/ml) alone (IL-17) or peptide (FM-0410) (50 ng/ml) and supernatants were assayed by Elisa for IL-6. Data were expressed as pg/ml and presented as means±S.D. of three separate independent experiments. Statistical analysis was conducted by one-way ANOVA followed by Bonferroni's for multiple comparisons. ^##P≤0.01, ^###P≤0.005 vs Ctrl group; *P≤0.05 vs IL-17 group. In order to assess the biological activity of synthesized peptide, we carried out in vitro studies using NIH-3T3 mouse embryonic fibroblast cells. […] With this in vitro system we measured IL-17 activity by its ability to induce IL-6 secretion by NIH-3T3 mouse embryonic fibroblast cells. Methods: The levels of IL-6 in the cellular and air pouch inflammatory supernatants at 24 h were measured using commercially available enzyme-linked immunosorbent assay kit (ELISA kit, R&D System, Milan, Italy) according to the manufacturer instructions. […] The addition of 100 μl of the substrate and stop solution represented the last steps before the reading of absorbance (measured at 450 nm) on a microplate reader. Antigen levels in the samples were determined using a standard curve and expressed as pg/ml. […]

[3] = system: dorsal air pouch of mice; test: In vivo air pouch model; conditions: 1 μg/mice into air pouch, 24 h
Experimental: FIG. 3: Mice were treated with IL-17 vehicle (Ctrl), IL-17 (1 μg/mice) alone (IL-17) or peptide (FM-0410) (1 μg/mice) and thereafter total cell number from pouches inflammatory exudates was evaluated at 24 h. Data were expressed as millions of cells for pouch and presented as means±S.D. of n=7 mice per group. Statistical analysis was conducted by one-way ANOVA followed by Bonferroni's for multiple comparisons. ^##P≤0.01, ^###P≤0.005 vs Ctrl group; *P≤0.05 vs IL-17 group.
FIG. 4: Inflammatory supernatants obtained from the pouch cavities were assayed using a Proteome Profiler Cytokine Array for Ctrl, IL-17 and FM-0410 experimental group. Densitometric analysis is presented as heatmap. Data (expressed as INT/mm2) are presented as means±S.D. of positive spots of three independent experiments run each with n=7 mice per group.
FIG. 5: Mice were treated with IL-17 vehicle (Ctrl), IL-17 (1 μg/mice), or peptide (FM-0410) (1 μg/mice) and inflammatory fluids were assayed by Elisa for IL-6. Data were expressed as pg/ml and presented as means±S.D. of n=7 mice per group. Statistical analysis was conducted by one-way ANOVA followed by Bonferroni's for multiple comparisons. ^##P≤0.01 vs CTRL group. […]
Specifically, dorsal air pouches were prepared by injection of 2.5 ml of air on day 0 and day 3 as previously described (Maione et al., 2009). […] Inflammatory exudates were collected and measured to evaluate the level of inflammatory cyto-chemokines. Cell number was determined by TC20 automated cell counter (Bio-Rad, Milan, Italy) using Bio-Rad's TC20 automated cell counter uses disposable slides, TC20 trypan blue dye (0.4% trypan blue dye w/v in 0.81% sodium chloride and 0.06% potassium phosphate dibasic solution) and a CCD camera to count cells based on the analyses of capture images (Maione et al., 2018).
Methods: The levels of IL-6 in the cellular and air pouch inflammatory supernatants at 24 h were measured using commercially available enzyme-linked immunosorbent assay kit (ELISA kit, R&D System, Milan, Italy) according to the manufacturer instructions. […]

B1: IL-17: recombinant mouse IL-17 purchased from R&D System; full-length cytokine used as comparator and stimulus (protein, UniProt Q62386 26-158, looked up)
Interleukin-17A: AAIIPQSSACPNTEAKDFLQNVKVNLKVFNSLGAKVSSRRPSDYLNRSTSPWTLHRNEDPDRYPSVIWEAQCRHQRCVNAEGKLDHHMNSVLIQQEILVLKREPESCPFTFRVEKMLVGVGCTCVASIVRQAA
Question: What does the source list for B1?
Answer: affinity of IL-17RA for IL-17A compared to IL-17F [1]: ~100 fold; IL-6 release [2]: significant increase in IL-6 release compared to control group; cyto-chemokines profile of pouch fluid (Proteome Profiler Cytokine Array) [3]: significant increase of cyto-chemokines profile compared to ctrl group; level of IL-6 in pouch fluids [3]: increased level of IL-6 compared to control group; number of inflammatory leukocytes (total cell number from pouch exudates) [3]: significant differences in the number of inflammatory leukocytes compared to control group
